Results: the DeepSol protein solubility set

Test: soluble on expression in E. coli; label from the status in PepcDB or PDB records

Sequence	soluble on expression in E. coli
MGSDKIHHHHHHMSARNETGYERVLVPVGDKSDPNMLTELSSILVDPRRGAVRFTHVTTDRSFVGSQENWRTGSDSVAESQHTLREEGIESTGTIRTASSALDGILEEAEEYEADAILIGWTDKDSVSSLVDKLLRKAGCDVIVFSADRDPIDTDSILVPVVVKPDANRLQMLAIMSQRTGASITFTYVTGDEGTDEEGRGLLDQSAERLAEYGVQAETELKSASSAVDALGQLSEDYDVMVIGTSRGWWLRKTLFGRKTDKIAQEAQCSLLMHKWQGEVPPES	not soluble
MAHHHHHHMRVYECDFYSHPAVCKYRLPKPYRHPTLDKRLREQRSVREARALVRCQKQGIAVPAVYAIDRESCAIVMERIIGMSVRDVLNEAQRPLEGAVSPVAARLLEGMGEVVGLLHNAHIIHGDLTTSNFMYRTATVAEGKADSAACGAAPRDRLVVLDFGLVMDKNSAEERAVDLYVLERAIKSSHPSLEGVASAFILNGYRRTADPHQVEATITRLGAVRARGRKRSMVG	not soluble
MGSDKIHHHHHHMTQELTFSIKSLRFDEDYRPAANTRNTTNFANLARGQRRQENLRNTLAMINNRFNDLAHWDNPKRDRYAVELDIISVEMKIGERDTGDAFPLIEILQPSILDQTTGARIDGIAGNNFSSYVRDYDFSVLLPAHNQDTSSFSLPEGFGSLHGTLFKQFVNSDTYTARFAKPPVICISVSSSKVYHRTGNRHPILGVEYRQDAFSLTDQYFEKMGLQVRYFMPPNSVAPLAFYFLGDLLNDYTNLELIGTISTMETFQKIYRPEIYNANSAAGTIYQPSLKHQDYSATQIVYDRQERSQLAVTQGKFTQEHFIKPYGDILEQWASSHAFSSTPTQDIAHHE	not soluble
MSKSEKQQLAPWVEKYRPKVLADIVGNENIVERLKVIGHEGNVPNIVLSGPPGCGKTTSVWALARELLGDKVKEAVLELNASDERGIDVVRHRIKTFAQTKVTLPEGRHKIIILDEADSMTDGAQQALRRTMEMYTKTTRFALACNQSEKIIEPIQSRCALLRYTKLSPVQLLTRVKEVAKAEKVNYDDGGLEAILFTAQGDMRQALNNLQATVNAYELVNKENVLKVCDEPHPDLMIKMLHYCTDRKFFEASKIIHEFHRLGFSSDDIVSTLFRVVKTVELSKNVSEQLRMEYIRQIAMCHMRIVQGLTSKLQLSRLIADLCRVSAAATATSA	not soluble
MRMNLTNHFLVAMPGMKDPYFQNSVIYVCEHNEEGAMGLMINAPVDITVGNMLKQVDVQPVHPRLFEASLDRPVYNGGPISEDRGFILHKPKDYYESSIQMTDDLAVTTSRDILSVLGTEAEPSDYLVALGYSGWSAGQLENELVENSWLTIEATPEIIFDTPITERWKKAVEKLGIDPSQLSADAGHALEHHHHHH	soluble
MGTTSSQSKTLYQKLYDAHIVHEAPNETPLLYIDRHLVHEVTSPQAFDGLRAMGRPVRQPGKTFATMDHNVSTQTKDINASGEMARIQMQELIKNCAEFGVSLYDLNHPFQGIVHVIGPEQGMTLPGMTIVCGDSHTATHGAFGSLAFGIGTSEVEHVLATQTLKQGRAKTMRIEVNGTVGAGITAKDIVLAIIGKTGSAGGTGHVVEFCGSAIEALSMEGRMTLCNMAIEMGAKAGLVAPDDTTFAYLKGRQFAPTGEQWEQGVAYWRTLKSDADAQFDTIVTLDAADIAPQVTWGTNPGQVIAVNQIIPAPESFSDPVERASAEKALAYMDLRPGIKLTEVAIDKVFIGSCTNSRIEDLRAAAAIAQGRKVAKGVQAIVVPGSGPVKAQAEAEGLDKIFIAAGFEWRLPGCSMCLAMNNDRLEPGERCASTSNRNFEGRQGRGGRTHLVSPAMAAAAAVSGHFADVRELSATTH	not soluble
MFFSHETILLICYNMLTLSKKISRIASEMIMKTKLIVVAGPTAVGKTALGIELAERFNGEIISGDSQQVYRQLNIGTAKATPEEQAAAVHHLIDVRDVDESYSAYDFVTEAQAAITDIVSRGKLPIIVGGTGLYLQSLLEGYHLGGKVDQNQVLAYRSELEQLSDQQLFEKIDSLGIEIKEINRRRAIRALELYRFSDNLENTETCYEPFIIGLDDERSLIYDRINTRVDKMVELGLLEEAKWLYDNFPEAQSARGIGYKELFPYFSGEQTLDEALEKLKQNTRRFAKRQLTWFRNRMTVSFYQISSPEYPENVIQDLAIFLNEEEGEKLEHHHHHH	soluble
MQRMNFSSLIETFAVDFQLVLPSVEGAGKYIHGEWFPTNEEPKTVSGAIIPYDNRTIYQSGGTLTSSDRQLAYVGSIPLGSKIIDMGKEYKVESEEPYAEHYADVNLYRLKAVTNNAAN	not soluble
